{"source": "patent US20250381223A1", "about": "(UTC THERAPEUTICS SHANGHAI, published 2025)", "binders": {"B1": {"name": "huVH2huVL3 (antibody, human IgG1, kappa, V domains shown)", "VH": "QVQLQESGPGLVKPSETLSITCTVSGFSLSDYGVHWVRQPPGKGLEWLGVIWAGGGTNYNSALMSRKTISKDTSKNQVSLKMSSLTAADTAVYYCARDKGYSYYYSMDYWGQGTTVTVSS", "VL": "DIQLTQSPSSLSASVGDRVTITCRASESVEYYVTSLMQWYQQKPGKAPKLLIFAASNVESGVPSRFSGSGSGTDFTLTISSLQPEDFATYYCQQSRKVPYTFGGGTKLEIKR"}, "B2": {"name": "huVH3huVL1 (antibody, human IgG1, kappa, V domains shown)", "VH": "B1 VH with I20L, P40S, L48I, M64K, T73N, N76S, M82L, L85V", "VL": "B1 VL with A13V, T22S, K46Q, D74N, L82V, P84E, T89M, Y91F"}, "B3": {"name": "huVH3huVL3 (antibody, human IgG1, kappa, V domains shown)", "VH": "B1 VH with I20L, P40S, L48I, M64K, T73N, N76S, M82L, L85V", "VL": "B1 VL"}, "B4": {"name": "huVH4huVL2 (antibody, human IgG1, kappa, V domains shown)", "VH": "B1 VH with I20L, V37I, L48I, M64K, K67V, K71V, M82L, L85V", "VL": "B1 VL with D74N, L82V, Y91F"}, "B5": {"name": "huVH4huVL3 (antibody, human IgG1, kappa, V domains shown)", "VH": "B1 VH with I20L, V37I, L48I, M64K, K67V, K71V, M82L, L85V", "VL": "B1 VL"}, "B6": {"name": "huVH5huVL2 (antibody, human IgG1, kappa, V domains shown)", "VH": "QVQLQESGPGLVKPSETLSLTCTVSGFSISDYGVHWIRQPPGKGLEWIGVIWAGGGTNYNPSLKSRVTISVDTSKNQVSLKLSSVTAADTAVYYCARDKGYSYYYSMDYWGQGTTVTVSS", "VL": "B1 VL with D74N, L82V, Y91F"}, "B7": {"name": "BCMA22 (scFv)", "scFv": "QSALTQPASVSGSPGQSITISCTGTSSDVGGYNYVSWYQQHPGKAPKLMIYEVTNRPSGVSNRFSGSKSGNTASLTISGLQAEDEAHYYCISYTSSSTLDYVFGTGTKVTVLGGGGSGGGGSGGGGSEVQLVESGPGLVKPSGTLSLTCAVSGGSISSSNWWSWVRQPPGKGLEWIGEIYHSGSTNYNPSLKSRVTISVDKSKNQFSLKLSSVTAADTAVYYCARVGSGYSYGYGDRVLDYWGQGTLVTVSS", "notes": "On lentivirus-transduced T cells as CAR; also called anti-BCMA scFv BCMA22"}, "B8": {"name": "BCMA23 (scFv)", "scFv": "QSALTQPPSASGTPGQRVTISCSGSSPNIGGNSVNWYQQLPGTAPKLLMYTNNQRPSGVPDRFSGSKSGTSASLAISGLQSEDEADYYCAAWDDSLNGVVFGGGTKLTVLGGGGSGGGGSGGGGSQVQLVQSGAEVKKPGESLKISCKGSGYSFTSYWIGWVRQMPGKGLEWMGIIYPGDSDTRYSPSFQGQVTISADKSISTAYLQWSSLKASDTAMYYCARRGGALDYWGQGTLVTVSS", "notes": "On lentivirus-transduced T cells as CAR; also called anti-BCMA scFv BCMA23"}, "B9": {"name": "BCMA24 (scFv)", "scFv": "QSVLTQPPSASGTPGQRVTISCSGSSSNIGSYSVNWYQQIPGTAPKLLIYSNNQRPSGVPDRFSGSKSGTSASLAISGLQSEDEADYSCAAWDDSLNGVVFGGGTKLTVLGGGGSGGGGSGGGGSQVQLVQSGAEVKKPGSSVKVSCKASGGTFSSYAISWVRQAPGQGLEWMGGIIPIFGTANYAQKFQGRVTITADESTSTAYMELSSLRSEDTAVYYCARGSFYSSVNVWGQGTTVTVSS", "notes": "On lentivirus-transduced T cells as CAR; also called anti-BCMA scFv BCMA24"}, "B10": {"name": "BCMA27 (scFv)", "scFv": "QSALTQPPSASGSPGQSVTISCTGSRSNVGSYNDVSWYQQHPGKAPKLIIYDVDKRPAGVPDRFSGSKSGNTASLTVSGLQAEDDADYYCSSYGGTYSLFVFGTGTELTVLGGGGSGGGGSGGGGSEVQLVESGGDLVQPGGSLRLSCAASGFTFSSYGMHWVRQAPGKGLEWVAVISYDGSNKYYADSVKGRFTISRDNSKNTLYLQMNSLRAEDTAVYYCAKEEFYGDSSYGMDVWGQGTTVTVSS", "notes": "On lentivirus-transduced T cells as CAR; also called anti-BCMA scFv BCMA27"}, "B11": {"name": "BCMA28 (scFv)", "scFv": "QSALTQPPSVSEAPRQRVTISCSGSSSNIGQNAVNWYQKLPGKAPKLLIYYNDLVSSGVSDRFSGSKSGTSASLAISGLQSEDEADYYCATWDDSLNGVVFGGGTKVTVLGGGGSGGGGSGGGGSQVQLVQSGPGLVKPSQTLSLTCAISGDSVSSNSAAWNWIRQSPSRGLEWLGRTYYRSKWYNDYAVSVKSRITINPDTSKNQFSLQLNSVTPEDTAVYYCARDYYYGMDVWGQGTTVTVSS", "notes": "On lentivirus-transduced T cells as CAR; also called anti-BCMA scFv BCMA28"}, "B12": {"name": "BCMA30 (scFv)", "scFv": "DIQMTQSPSFLSASVGDRVTITCRASQGISSYLAWYQQKPGKAPKLLIYAASTLQSGVPSRFSGSGSGTEFTLTISSLQPEDFATYYCQQLNSYPPWTFGQGTKVEIKGGGGSGGGGSGGGGSQVQLVQSGAEVKKPGESLKISCKGSGYRFTSYWIGWVRQMPGKGLEWMGIIYPGDSDTRYSPPFQGQVTISADKSIDTAYLQWSSLKASDTAMYYCARLDASGSQRGGMDVWGQGTTVTVSS", "notes": "On lentivirus-transduced T cells as CAR; also called anti-BCMA scFv BCMA30"}, "B13": {"name": "BCMA31 (scFv)", "scFv": "QSALTQPPSASGSPGQSVTISCTGTSSDVGTYNYVSWYQQHPGKAPKLMIYDVNQRPSGVPDRFSGSKSGNTASLTVSGLQAEDEADYYCSSYGGSNNLVFGGGTKVTVLGGGGSGGGGSGGGGSEVQLVESGGGLIQPGGSLRLSCAASGFTFSSYWMSWVRQSPGKGLEWVANIKPDGSDKYYVDSVKGRFTISRDNAKNSLDLQMNSLRGEDTAIYYCARGATTYGSWGQGTLVTVSS", "notes": "On lentivirus-transduced T cells as CAR; also called anti-BCMA scFv BCMA31"}, "B14": {"name": "BCMA32 (scFv)", "scFv": "QSALTQPASVSGSPGQSITISCTGTSSDVGGYNYVSWYQQHPGKAPKLMIYDVSKRPSGVSNRFSGSKSGNTASLTISGLQAEDEADYYCSSYTSSSTVVFGGGTKLTVLGGGGSGGGGSGGGGSQVQLQESGAEVKKPGSSVKVSCKASGGTFSRYAISWVRQAPGQGLEWMGGIIPFFGTSDYAQKFQGRVTITADESTSTAYMDLSRLRSEDTAVYYCAVRVATTGTGFYYAMDVWGQGTTVTVSS", "notes": "On lentivirus-transduced T cells as CAR; also called anti-BCMA scFv BCMA32"}, "B15": {"name": "BCMA33 (scFv)", "scFv": "QSALTQPPSASGSPGQSVTISCTGTSSDVGGYNYVSWYQQHPGKAPKLMIYEVSKRPSGVPDRFSGSKSGNTASLTVSGLQAEDEADYFCSSYAGSNNFVVFGGGTKLTVLGGGGSGGGGSGGGGSEVQLVESGGGLVQPGRSLRLSCAASGFTFDDYAMHWVRQAPGKGLEWVSGISWNSGSIGYADSVKGRFTISRDNAKNSLYLQMNSLRAEDTALYYCAKVGASAALGAFDIWGQGTMVTVSS", "notes": "On lentivirus-transduced T cells as CAR; also called anti-BCMA scFv BCMA33"}, "B16": {"name": "BCMA34 (scFv)", "scFv": "QPGLTQPPSVSKGLRQTATLTCTGNSNNVGNQGAAWLQQHQGHPPKLLSYRNNNRPSGISERFSASRSGNTASLTITGLQPEDEADYYCSAWDSSLSARVFGGGTKLTVLGGGGSGGGGSGGGGSQVQLVQSGAEVKKPGASVKVSCKTSGYTFSNPFVHWVRQAPGQGLEWVGIINLSGGDTLYAQKFQGGVTMTRDTSTNTAYMELTSLTFEDTAVYYCARDQAGFGDSAYWGQGTLVTVSS", "notes": "On lentivirus-transduced T cells as CAR; also called anti-BCMA scFv BCMA34"}}, "note": "Positions count from the first letter of the chain named."}
{"biological_target": "T1, recombinant Human/Cynomolgus CD28 (N-6His) (Human/Cynomolgus, UniProt P10747 19-152)", "T1 construct": "Bought protein; also called antigen CD28; not shown: 6His tag at the N-terminus (N-6His)", "assay": "ELISA; plate coated with CD28 (N-6His) 2 µg/mL; HRP-anti-hFc", "experimental": "The binding activity of the humanized antibody to the antigen CD28 was detected by the ELISA method. The experimental procedures were as follows: [0525] 1. 30 μL of recombinant Human/Cynomolgus CD28 (N-6His) (Suzhou Novoprotein Scientific Inc., C406) at a concentration of 2 μg/mL was added to each well of an ELISA plate, and the plate was incubated at 4° C. overnight. [0526] 2. The next day, the ELISA plate was washed 3 times with PBST (containing 0.05% Tween-20). [0527] 3. 250 μL of 5% skim milk powder (dissolved in PBS) was added to each well of the ELISA plate, and the plate was incubated at room temperature for 2 h. [0528] 4. The plate was washed 3 times with PBST, antibodies with different dilution ratios were added to the ELISA plate at 30 μL/well, and the plate was incubated at room temperature for 60 min. [0529] 5. The plate was washed 3 times with PBST, 30 μL of HRP-anti-hFc antibody was added to each well, and the plate was incubated at room temperature for 60 min. [0530] 6. The plate was washed 3 times with PBST, 30 μL of TMB was added to each well, and after color development at room temperature, 30 μL of 2 M H₂SO₄ was added to each well to stop the reaction. The plate was read at 450 nm.", "units": {"EC50": "µg/mL"}}
{"binder": "B1", "EC50": 0.0104}
{"binder": "B2", "EC50": 0.0121}
{"binder": "B3", "EC50": 0.00827}
{"binder": "B4", "EC50": 0.0126}
{"binder": "B5", "EC50": 0.0127}
{"binder": "B6", "EC50": 0.0151}
{"biological_target": "T2, BCMA-Fc recombinant protein (human, UniProt Q02223 1-54)", "T2 construct": "construct not described; not shown: Fc part", "T2 sequence (looked up)": "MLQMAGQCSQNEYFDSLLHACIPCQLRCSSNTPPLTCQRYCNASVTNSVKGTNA", "assay": "flow cytometry; CAR-T cells stained with 5 µg/mL BCMA-Fc, anti-human IgG Fc", "experimental": "(5) Screening for functional anti-BCMA scFv in T cells: the anti-BCMA scFv was constructed into a bicistronic lentiviral CAR expression vector containing an IRES-truncated EGFR (tEGFR) expression cassette. The lentivirus was produced by transient transfection of 293T cells, followed by purification by ultracentrifugation and concentration. T cells were transduced with the CAR lentivirus to generate CAR-T cells, which were then cultured for 10 days. 10 days after lentivirus transduction, CAR-T cells were collected and stained with 5 μg/mL CD19-Fc protein (Ctrl Fc protein) or BCMA-Fc recombinant protein for 30 min at 4° C. After washing, the CAR-T cells were stained with the anti-human IgG Fc and anti-EGFR mAb. The samples were analyzed using a flow cytometer."}
{"binder": "B7", "binding result": "binds"}
{"binder": "B8", "binding result": "binds"}
{"binder": "B9", "binding result": "binds"}
{"binder": "B10", "binding result": "binds"}
{"binder": "B11", "binding result": "binds"}
{"binder": "B12", "binding result": "binds"}
{"binder": "B13", "binding result": "binds"}
{"binder": "B14", "binding result": "binds"}
{"binder": "B15", "binding result": "binds"}
{"binder": "B16", "binding result": "binds"}
{"biological_target": "T3, CD28 (detection antigen of the BLI assay) (human, UniProt P10747 19-152, limits assumed)", "T3 construct": "also called the antigen", "assay": "BLI (GATOR); antibody loaded at 30 nM, antigen 300-37.5 nM", "text": "The affinity kinetics of the humanized antibodies were detected using biolayer interferometry (BLI). The experimental procedures were as follows: [0533] 1. GATOR instrument was run, and the Kinetics experimental mode was selected. [0534] 2. The analysis program was run according to Table 5", "units": {"Kd": "nM", "koff": "s⁻¹", "kon": "M⁻¹ s⁻¹"}}
{"binder": "B1", "Kd": 7.44, "koff": 0.000635, "kon": 85400}
{"binder": "B2", "Kd": 8.36, "koff": 0.000727, "kon": 86900}
{"binder": "B3", "Kd": 9.59, "koff": 0.000818, "kon": 85300}
{"binder": "B4", "Kd": 10.9, "koff": 0.000932, "kon": 85400}
{"binder": "B5", "Kd": 11.2, "koff": 0.000966, "kon": 86600}
{"binder": "B6", "Kd": 10.8, "koff": 0.000909, "kon": 84100}
